B1: PPP2R2C (parent)
chain: YSSSKGSLRLCDMRAAALCDKHSK

Variants of: B1
Experiment: protein stability index of a GFP-peptide fusion (GPS, HEK-293T) (PSI 1-6); higher = more stable
Details: c terminus: a fixed tail appended
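Note: lentivirally expressed fusions sorted by FACS into six bins by GFP to DsRed ratio, PSI derived from sequencing read proportions per bin multiplied by bin number.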

Q: For YSSSKGSRRLCDMRAAALCDKHSK, which protein stability index is on record?
A: The protein stability index was 1.51.

Q: With YSSSKGSSRLCDMRAAALCDKHSK as the variant, how does the protein stability index read?
A: The protein stability index was 2.02.

Q: For YSSSKGSTRLCDMRAAALCDKHSK, which protein stability index is on record?
A: Its protein stability index is 1.97.

Q: For YSSSKGSVRLCDMRAAALCDKHSK, which protein stability index is on record?
A: Its protein stability index is 1.95.

Q: Which protein stability index does the source give for YSSSKGSWRLCDMRAAALCDKHSK here?
A: The protein stability index was 2.39.

Q: Which protein stability index does the source give for YSSSKGSYRLCDMRAAALCDKHSK here?
A: Its protein stability index is 1.36.

Q: Which protein stability index does the source give for YSSSKGSLALCDMRAAALCDKHSK here?
A: Its protein stability index is 2.63.

Q: Which protein stability index does the source give for YSSSKGSLCLCDMRAAALCDKHSK here?
A: The protein stability index was 3.28.

Q: Which protein stability index does the source give for YSSSKGSLDLCDMRAAALCDKHSK here?
A: The protein stability index was 4.21.

Q: Which protein stability index does the source give for YSSSKGSLELCDMRAAALCDKHSK here?
A: The protein stability index was 3.7.

Q: With YSSSKGSLFLCDMRAAALCDKHSK as the variant, how does the protein stability index read?
A: The protein stability index was 2.37.

Q: With YSSSKGSLGLCDMRAAALCDKHSK as the variant, how does the protein stability index read?
A: Its protein stability index is 1.9.

Q: With YSSSKGSLHLCDMRAAALCDKHSK as the variant, how does the protein stability index read?
A: Its protein stability index is 2.42.

Q: With YSSSKGSLILCDMRAAALCDKHSK as the variant, how does the protein stability index read?
A: The protein stability index was 1.7.

Q: With YSSSKGSLKLCDMRAAALCDKHSK as the variant, how does the protein stability index read?
A: Its protein stability index is 3.11.

Q: Which protein stability index does the source give for YSSSKGSLLLCDMRAAALCDKHSK here?
A: The protein stability index was 3.61.

Q: Which protein stability index does the source give for YSSSKGSLMLCDMRAAALCDKHSK here?
A: Its protein stability index is 1.9.

Q: Which protein stability index does the source give for YSSSKGSLNLCDMRAAALCDKHSK here?
A: Its protein stability index is 3.45.

Q: With YSSSKGSLPLCDMRAAALCDKHSK as the variant, how does the protein stability index read?
A: Its protein stability index is 3.11.

Q: With YSSSKGSLQLCDMRAAALCDKHSK as the variant, how does the protein stability index read?
A: The protein stability index was 3.3.

Q: With YSSSKGSLSLCDMRAAALCDKHSK as the variant, how does the protein stability index read?
A: The protein stability index was 3.81.

Q: Which protein stability index does the source give for YSSSKGSLTLCDMRAAALCDKHSK here?
A: Its protein stability index is 3.28.

Q: Which protein stability index does the source give for YSSSKGSLVLCDMRAAALCDKHSK here?
A: The protein stability index was 2.91.

Q: With YSSSKGSLYLCDMRAAALCDKHSK as the variant, how does the protein stability index read?
A: Its protein stability index is 1.76.

Q: Which protein stability index does the source give for YSSSKGSLRACDMRAAALCDKHSK here?
A: The protein stability index was 3.72.

Q: With YSSSKGSLRCCDMRAAALCDKHSK as the variant, how does the protein stability index read?
A: The protein stability index was 2.95.

Q: With YSSSKGSLRDCDMRAAALCDKHSK as the variant, how does the protein stability index read?
A: Its protein stability index is 4.23.

Q: Which protein stability index does the source give for YSSSKGSLRECDMRAAALCDKHSK here?
A: Its protein stability index is 4.47.

Q: With YSSSKGSLRFCDMRAAALCDKHSK as the variant, how does the protein stability index read?
A: The protein stability index was 2.22.

Q: For YSSSKGSLRGCDMRAAALCDKHSK, which protein stability index is on record?
A: Its protein stability index is 3.53.

Q: For YSSSKGSLRHCDMRAAALCDKHSK, which protein stability index is on record?
A: Its protein stability index is 3.04.

Q: For YSSSKGSLRICDMRAAALCDKHSK, which protein stability index is on record?
A: Its protein stability index is 2.9.

Q: For YSSSKGSLRKCDMRAAALCDKHSK, which protein stability index is on record?
A: The protein stability index was 3.1.

Q: Which protein stability index does the source give for YSSSKGSLRMCDMRAAALCDKHSK here?
A: The protein stability index was 1.92.

Q: Which protein stability index does the source give for YSSSKGSLRNCDMRAAALCDKHSK here?
A: Its protein stability index is 3.67.

Q: Which protein stability index does the source give for YSSSKGSLRPCDMRAAALCDKHSK here?
A: The protein stability index was 3.52.

Q: Which protein stability index does the source give for YSSSKGSLRQCDMRAAALCDKHSK here?
A: The protein stability index was 3.79.

Q: With YSSSKGSLRRCDMRAAALCDKHSK as the variant, how does the protein stability index read?
A: Its protein stability index is 3.16.

Q: With YSSSKGSLRSCDMRAAALCDKHSK as the variant, how does the protein stability index read?
A: Its protein stability index is 3.54.

Q: Which protein stability index does the source give for YSSSKGSLRTCDMRAAALCDKHSK here?
A: Its protein stability index is 3.35.

Q: For YSSSKGSLRVCDMRAAALCDKHSK, which protein stability index is on record?
A: Its protein stability index is 3.54.

Q: With YSSSKGSLRWCDMRAAALCDKHSK as the variant, how does the protein stability index read?
A: Its protein stability index is 2.21.

Q: With YSSSKGSLRYCDMRAAALCDKHSK as the variant, how does the protein stability index read?
A: The protein stability index was 2.02.

Q: For YSSSKGSLRLADMRAAALCDKHSK, which protein stability index is on record?
A: Its protein stability index is 2.96.

Q: For YSSSKGSLRLDDMRAAALCDKHSK, which protein stability index is on record?
A: Its protein stability index is 3.74.

Q: With YSSSKGSLRLEDMRAAALCDKHSK as the variant, how does the protein stability index read?
A: The protein stability index was 3.85.

Q: Which protein stability index does the source give for YSSSKGSLRLFDMRAAALCDKHSK here?
A: The protein stability index was 1.67.

Q: For YSSSKGSLRLGDMRAAALCDKHSK, which protein stability index is on record?
A: Its protein stability index is 2.92.

Q: For YSSSKGSLRLHDMRAAALCDKHSK, which protein stability index is on record?
A: Its protein stability index is 3.63.

Q: With YSSSKGSLRLIDMRAAALCDKHSK as the variant, how does the protein stability index read?
A: The protein stability index was 1.42.

Q: Which protein stability index does the source give for YSSSKGSLRLKDMRAAALCDKHSK here?
A: The protein stability index was 3.07.

Q: For YSSSKGSLRLLDMRAAALCDKHSK, which protein stability index is on record?
A: Its protein stability index is 2.36.

Q: For YSSSKGSLRLMDMRAAALCDKHSK, which protein stability index is on record?
A: Its protein stability index is 2.29.

Q: Which protein stability index does the source give for YSSSKGSLRLNDMRAAALCDKHSK here?
A: Its protein stability index is 3.72.

Q: Which protein stability index does the source give for YSSSKGSLRLPDMRAAALCDKHSK here?
A: Its protein stability index is 4.05.

Q: For YSSSKGSLRLQDMRAAALCDKHSK, which protein stability index is on record?
A: The protein stability index was 2.97.

Q: For YSSSKGSLRLRDMRAAALCDKHSK, which protein stability index is on record?
A: The protein stability index was 3.31.

Q: With YSSSKGSLRLSDMRAAALCDKHSK as the variant, how does the protein stability index read?
A: Its protein stability index is 3.16.

Q: Which protein stability index does the source give for YSSSKGSLRLTDMRAAALCDKHSK here?
A: Its protein stability index is 2.88.

Q: For YSSSKGSLRLVDMRAAALCDKHSK, which protein stability index is on record?
A: Its protein stability index is 1.8.

Q: With YSSSKGSLRLWDMRAAALCDKHSK as the variant, how does the protein stability index read?
A: The protein stability index was 1.2.

Q: With YSSSKGSLRLYDMRAAALCDKHSK as the variant, how does the protein stability index read?
A: The protein stability index was 2.75.

Q: For YSSSKGSLRLCAMRAAALCDKHSK, which protein stability index is on record?
A: The protein stability index was 2.32.

Q: For YSSSKGSLRLCCMRAAALCDKHSK, which protein stability index is on record?
A: Its protein stability index is 1.99.

Q: With YSSSKGSLRLCEMRAAALCDKHSK as the variant, how does the protein stability index read?
A: Its protein stability index is 2.71.

Q: With YSSSKGSLRLCFMRAAALCDKHSK as the variant, how does the protein stability index read?
A: Its protein stability index is 1.52.

Q: Which protein stability index does the source give for YSSSKGSLRLCGMRAAALCDKHSK here?
A: Its protein stability index is 1.93.

Q: With YSSSKGSLRLCHMRAAALCDKHSK as the variant, how does the protein stability index read?
A: The protein stability index was 3.2.

Q: Which protein stability index does the source give for YSSSKGSLRLCIMRAAALCDKHSK here?
A: Its protein stability index is 1.6.

Q: For YSSSKGSLRLCKMRAAALCDKHSK, which protein stability index is on record?
A: The protein stability index was 2.54.

Q: With YSSSKGSLRLCLMRAAALCDKHSK as the variant, how does the protein stability index read?
A: Its protein stability index is 1.82.

Q: For YSSSKGSLRLCMMRAAALCDKHSK, which protein stability index is on record?
A: The protein stability index was 1.78.

Q: Which protein stability index does the source give for YSSSKGSLRLCNMRAAALCDKHSK here?
A: The protein stability index was 2.63.

Q: With YSSSKGSLRLCPMRAAALCDKHSK as the variant, how does the protein stability index read?
A: Its protein stability index is 2.25.

Q: With YSSSKGSLRLCQMRAAALCDKHSK as the variant, how does the protein stability index read?
A: The protein stability index was 2.76.

Q: For YSSSKGSLRLCRMRAAALCDKHSK, which protein stability index is on record?
A: The protein stability index was 2.36.

Q: Which protein stability index does the source give for YSSSKGSLRLCSMRAAALCDKHSK here?
A: The protein stability index was 2.29.

Q: Which protein stability index does the source give for YSSSKGSLRLCTMRAAALCDKHSK here?
A: Its protein stability index is 2.69.

Q: With YSSSKGSLRLCVMRAAALCDKHSK as the variant, how does the protein stability index read?
A: Its protein stability index is 2.11.

Q: Which protein stability index does the source give for YSSSKGSLRLCWMRAAALCDKHSK here?
A: Its protein stability index is 2.7.

Q: Which protein stability index does the source give for YSSSKGSLRLCYMRAAALCDKHSK here?
A: The protein stability index was 2.1.

Q: For YSSSKGSLRLCDARAAALCDKHSK, which protein stability index is on record?
A: The protein stability index was 1.52.

Q: For YSSSKGSLRLCDCRAAALCDKHSK, which protein stability index is on record?
A: Its protein stability index is 1.73.

Q: Which protein stability index does the source give for YSSSKGSLRLCDDRAAALCDKHSK here?
A: Its protein stability index is 2.37.

Q: For YSSSKGSLRLCDERAAALCDKHSK, which protein stability index is on record?
A: The protein stability index was 2.49.

Q: Which protein stability index does the source give for YSSSKGSLRLCDFRAAALCDKHSK here?
A: Its protein stability index is 1.46.

Q: For YSSSKGSLRLCDGRAAALCDKHSK, which protein stability index is on record?
A: Its protein stability index is 2.

Q: Which protein stability index does the source give for YSSSKGSLRLCDHRAAALCDKHSK here?
A: Its protein stability index is 1.56.

Q: For YSSSKGSLRLCDIRAAALCDKHSK, which protein stability index is on record?
A: The protein stability index was 2.08.

Q: With YSSSKGSLRLCDKRAAALCDKHSK as the variant, how does the protein stability index read?
A: Its protein stability index is 2.08.

Q: Which protein stability index does the source give for YSSSKGSLRLCDLRAAALCDKHSK here?
A: Its protein stability index is 2.

Q: With YSSSKGSLRLCDNRAAALCDKHSK as the variant, how does the protein stability index read?
A: The protein stability index was 2.05.

Q: For YSSSKGSLRLCDPRAAALCDKHSK, which protein stability index is on record?
A: Its protein stability index is 2.21.

Q: For YSSSKGSLRLCDQRAAALCDKHSK, which protein stability index is on record?
A: The protein stability index was 1.83.
